A value given as a limit tells only on which side of the number the result lay.

For assay [1], the target named is T1, mouse EphA4 extracellular region-SEAP-His protein (mouse). Nature of the assay: competition ELISA, competitor mouse Ephrin B2-Fc. The procedure: (§1) Antibody A obtained in Example 1 was evaluated for its inhibitory activity against the binding between mouse EphA4 and its mouse ligand according to the following steps. Each well of a 96-well plate (Nunc) was coated with an anti-alkaline phosphatase antibody (Thermo Fisher Scientific). After incubation overnight at 4° C., each well was blocked with 1% BlockAce (DS Pharma Biomedical) at room temperature for 1 hour. After washing with 0.05% Tween 20/PBS (Thermo Fisher Scientific) three times, the mouse EphA4 extracellular region-SEAP-His protein obtained by the method of Example 1 was added (final concentration: 10 nM) to each well and incubated at room temperature for 1 hour. After washing three times, ligands and serially diluted antibody A (0, 0.001, 0.003, 0.01, 0.03, 0.1, 0.3, 1,3, 10, 30, 100, 300, and 1000 nM) or a known EphA4 inhibitor KYL peptide ([…], 0, 0.003, 0.01, 0.03, 0.1, 0.3, 1, 3, 10, 30, and 100 μM, its synthesis was outsourced to Hokkaido System Science) or compound 1 (0, 0.03, 0.1, 0.3, 1,3, 10, 30, 100, 300, and 1000 μM, Formula 1, Matrix Scientific) were added to each well. The ligands used were mouse Ephrin A1-Fc chimera (R&D Systems, final concentration: 20 nM) and mouse Ephrin B2-Fc chimera (R&D Systems, final concentration: 0.6 nM). […] The absorbance at 450 nm was read using a microplate reader (Molecular Devices).
T1 sequence (chain, as listed by the source limits assumed): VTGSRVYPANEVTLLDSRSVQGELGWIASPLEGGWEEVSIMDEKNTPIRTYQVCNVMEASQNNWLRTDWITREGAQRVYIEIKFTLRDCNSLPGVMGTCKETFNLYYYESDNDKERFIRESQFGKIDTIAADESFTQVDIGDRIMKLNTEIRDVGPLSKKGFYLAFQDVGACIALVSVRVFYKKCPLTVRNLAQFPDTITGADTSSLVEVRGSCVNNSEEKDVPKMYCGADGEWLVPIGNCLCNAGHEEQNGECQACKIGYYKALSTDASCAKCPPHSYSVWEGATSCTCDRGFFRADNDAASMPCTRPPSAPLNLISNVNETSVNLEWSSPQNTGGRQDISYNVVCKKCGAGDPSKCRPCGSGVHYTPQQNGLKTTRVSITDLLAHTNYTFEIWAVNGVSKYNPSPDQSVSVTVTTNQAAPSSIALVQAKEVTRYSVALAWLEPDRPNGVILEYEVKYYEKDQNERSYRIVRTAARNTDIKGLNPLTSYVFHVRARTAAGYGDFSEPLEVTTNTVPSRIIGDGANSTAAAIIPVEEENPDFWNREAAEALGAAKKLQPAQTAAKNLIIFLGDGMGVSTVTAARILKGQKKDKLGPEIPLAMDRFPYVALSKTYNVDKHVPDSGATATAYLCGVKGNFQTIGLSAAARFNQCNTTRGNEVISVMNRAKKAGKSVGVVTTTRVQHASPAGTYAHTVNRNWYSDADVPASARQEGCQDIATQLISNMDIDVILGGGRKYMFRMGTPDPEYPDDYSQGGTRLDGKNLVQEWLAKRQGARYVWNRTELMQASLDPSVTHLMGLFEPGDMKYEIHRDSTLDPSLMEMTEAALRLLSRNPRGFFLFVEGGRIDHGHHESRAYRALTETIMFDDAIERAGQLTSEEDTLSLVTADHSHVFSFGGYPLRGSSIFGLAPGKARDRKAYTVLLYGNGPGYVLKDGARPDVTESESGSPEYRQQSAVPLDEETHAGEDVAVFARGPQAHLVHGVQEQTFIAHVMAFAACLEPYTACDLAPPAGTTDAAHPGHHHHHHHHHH

Assay [2] has as its target T1, mouse EphA4 extracellular …. The assay can be described thus: competition ELISA: mouse EphA4 extracellular region-SEAP-His captured on the plate, blocked ligand mouse Ephrin B2-Fc chimera (0.6 nM). The procedure:
as §1
In general terms: ELISA stands for enzyme-linked immunosorbent assay.

In assay [3] the target is T2, human EphA4 extracellular region-SEAP-His protein (human, UniProt P54764 20-547).
T2 construct: also called hEphA4-SEAP-His
T2 sequence (P54764 20-547): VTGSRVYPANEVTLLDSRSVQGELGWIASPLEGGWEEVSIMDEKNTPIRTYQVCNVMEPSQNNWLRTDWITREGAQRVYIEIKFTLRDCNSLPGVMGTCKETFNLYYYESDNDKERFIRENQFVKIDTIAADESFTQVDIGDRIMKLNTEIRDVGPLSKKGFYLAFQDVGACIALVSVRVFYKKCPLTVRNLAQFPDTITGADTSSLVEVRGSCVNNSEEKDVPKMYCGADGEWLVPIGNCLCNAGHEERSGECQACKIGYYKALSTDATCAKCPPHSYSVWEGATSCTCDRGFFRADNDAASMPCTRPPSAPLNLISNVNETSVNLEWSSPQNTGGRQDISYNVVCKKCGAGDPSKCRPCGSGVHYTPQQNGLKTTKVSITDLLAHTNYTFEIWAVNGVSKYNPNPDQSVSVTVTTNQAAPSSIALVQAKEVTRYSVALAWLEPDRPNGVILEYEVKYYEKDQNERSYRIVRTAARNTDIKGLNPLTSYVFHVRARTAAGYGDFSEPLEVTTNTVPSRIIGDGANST
The assay can be described thus: competition ELISA: human EphA4 extracellular region-SEAP-His captured on the plate, blocked ligand biotinylated human Ephrin B3-Fc chimera (2.3 nM). The protocol: (§2) Antibody A obtained in Example 1 was evaluated for its inhibitory activity against the binding between human EphA4 and its human ligand according to the following steps. Each well of a 96-well plate (Nunc) was coated with an anti-alkaline phosphatase antibody (Thermo Fisher Scientific). After incubation overnight at 4° C., each well was blocked with 1% BlockAce (DS Pharma Biomedical) at room temperature for 1 hour. After washing with 0.05% Tween 20/PBS (Thermo Fisher Scientific) three times, the human EphA4 extracellular region-SEAP-His protein obtained by the method of Example 1 was added (final concentration: 10 nM) to each well and incubated at room temperature for 1 hour. After washing three times, ligands and serially diluted antibody A (0, 0.003, 0.01, 0.03, 0.1, 0.3, 1, 3, 10, 30, 100, 300, 1000, and 3000 nM) or an EphA4 inhibitor KYL peptide ([…], 0, 0.003, 0.01, 0.03, 0.1, 0.3, 1, 3, 10, 30, 100, 300, 1000, and 3000 μM, its synthesis was outsourced to Toray Research Center) were added to each well. The ligands used were biotinylated human Ephrin A5-Fc chimera (R&D Systems, final concentration: 0.7 nM) and biotinylated human Ephrin B3-Fc chimera (R&D Systems, final concentration: 2.3 nM). […] The absorbance at 450 nm was read using a microplate reader (Molecular Devices or PerkinElmer). […]

The target of assay [4] is T2, human EphA4 extracellular …. The assay can be described thus: competition ELISA, competitor human Ephrin B3-Fc. The protocol: as §2
In assay [5] the target is T1, mouse EphA4 extracellular …. Nature of the assay: competition ELISA: mouse EphA4 extracellular region-SEAP-His captured on the plate, blocked ligand mouse Ephrin A1-Fc chimera (20 nM). The protocol: as §1
The target of assay [6] is rat EphA4 in rat hippocampal neurons (rat, UniProt D3ZZK3 20-986). Nature of the assay: cell-based or functional assay.
The target of assay [7] is T2, human EphA4 extracellular …. Nature of the assay: competition ELISA: human EphA4 extracellular region-SEAP-His captured on the plate, blocked ligand biotinylated human Ephrin A5-Fc chimera (0.7 nM). The procedure:
as §2

The target in assay [8] is T1, mouse EphA4 extracellular …. Nature of the assay: competition ELISA, competitor biotinylated mouse Ephrin B2-Fc. The procedure:
Antibody A-Fab and antibody A-F(ab′)₂ obtained in Example 5 were evaluated for their inhibitory activity against the binding between EphA4 and its ligand according to the following steps. Each well of a 96-well plate (Nunc) was coated with an anti-alkaline phosphatase antibody (Thermo Fisher Scientific). After incubation overnight at 4° C., each well was blocked with 1% BlockAce (DS Pharma Biomedical) at room temperature for 1 hour. After washing with 0.05% Tween 20/PBS (Thermo Fisher Scientific) three times, the mouse EphA4 extracellular region-SEAP-His protein obtained by the method of Example 1 was added (final concentration: 10 nM) to each well and incubated at room temperature for 1 hour. After washing three times, a ligand and serially diluted antibody A (0, 0.003, 0.01, 0.03, 0.1, 0.3, 1, 3, 10, 30, 100, 300, 1000, and 3000 nM), antibody A-Fab (0, 0.003, 0.01, 0.03, 0.1, 0.3, 1, 3, 10, 30, 100, 300, 1000, and 3000 nM), antibody A-F(ab′)₂ (0, 0.003, 0.01, 0.03, 0.1, 0.3, 1, 3, 10, 30, 100, 300, 1000, and 3000 nM), or the EphA4 inhibitor KYL peptide ([…], 0, 0.0003, 0.001, 0.003, 0.01, 0.03, 0.1, 0.3, 1, 3, 10, 30, 100, 300, 1000, and 3000 μM, its synthesis was outsourced to Toray Research Center) were added to each well. The ligand used was biotinylated mouse Ephrin B2-Fc chimera (R&D Systems, final concentration: 2.5 nM). After incubation at room temperature for 1 hour and subsequent washing three times, horseradish peroxidase-labeled streptavidin (GE Healthcare) was added thereto and incubated at room temperature for 1 hour. After washing three times, a TMBZ (3,3′,5,5′-tetramethylbenzidine, Sigma-Aldrich) solution was added to each well and incubated at room temperature for 2 minutes. An equal amount of a reaction stopping solution (1N H₂SO₄, Wako Pure Chemical Industries) was added to each well. The absorbance at 450 nm was read using a microplate reader (Molecular Devices or PerkinElmer).
Antibody A and antibody A-F(ab′)₂ had 1000 or more times the activity of the KYL peptide, and antibody A-Fab also had 10 or more times the activity of KYL peptide.

The target in assay [9] is T2, human EphA4 extracellular …. Nature of the assay: competition ELISA, competitor human Ephrin A5-Fc. The protocol:
as §2

The target is the same in assay [10]. Nature of the assay: SPR (Biacore T200), EphA4-SEAP-His captured by anti-His antibody; Fab (monovalent), not F(ab')2. The procedure: (§3) Next, the binding affinity of antibody A-Fab and antibody A-F(ab′)₂ for mouse and human EphA4 was determined by surface plasmon resonance (SPR) using Biacore T200 (GE Healthcare). Antibody A obtained in Example 1 was used as a control for the comparison of each fragment. First, an anti-His tag antibody was immobilized on sensor chip CM5. The immobilization of the anti-His tag antibody on sensor chip CM5 was performed by the amine coupling method using N-hydroxysuccinimide (NHS) and N-ethyl-N′-(3-dimethylaminopropyl)carbodiimide hydrochloride (EDC). Ethanolamine was used in blocking (the sensor chip and the reagents for immobilization were all manufactured by GE Healthcare). The antibody was diluted with a buffer solution for immobilization (10 mM sodium acetate, pH 4.5) into 3 μg/mL and immobilized on the sensor chip according to the protocol attached to Biacore T200.
(§4) Mouse or human EphA4 extracellular region-SEAP-His protein was diluted with a running buffer solution HBS-EP (GE Healthcare, BR-1001-88), injected onto a flow cell for 120 seconds, and captured (amount of the protein captured: approximately 10 to 20 RU). Subsequently, antibody A (50, 16.7, 5.6, 1.9, 0.6, and 0 nM), antibody A-Fab (500, 166.7, 55.6, 18.5, 6.2, and 0 nM), or antibody A-F(ab′)₂ (50, 16.7, 5.6, 1.9, 0.6, and 0 nM) serially diluted using HBS-EP was added to the sensor chip for 120 seconds. […]

Assay [11] deals with T1, mouse EphA4 extracellular …. The description is as above. The procedure: as §3, §4
Assay [12] has the same target. The assay can be described thus: SPR (Biacore T200), mouse EphA4 extracellular region-SEAP-His captured on an anti-His antibody CM5 chip, Fab as analyte at 6.2-500 nM, 1:1 fit. The protocol:
as §3, §4

The target of assay [13] is T2, human EphA4 extracellular …. The assay can be described thus: SPR (Biacore T200), human EphA4 extracellular region-SEAP-His captured on an anti-His antibody CM5 chip, Fab as analyte at 6.2-500 nM, 1:1 fit. The protocol: as §3, §4
On the technique in general: Surface plasmon resonance follows binding to a sensor surface in real time, without labels.

Turning to KYLPYWPVLSSL (synthetic peptide) [KYL peptide], the IC50 in assay [1] was around 1300 nM; in assay [2], 1310 nM; in [3] it was 1570 nM; in assay [4] it was around 1600 nM; in [5], 1290 nM; in assay [7] it was 6120 nM. The IC50 is 5290 nM in assay [8] and around 6100 nM in assay [9]. Further, the “IC50 of suppression of EphA4 autophosphorylation induced by mouse EphrinA1 in the hippocampal neurons” value in [6] was determined as 9910 nM.

B1: antibody A-Fab (Fab, V domains shown, not shown: a dimerising Fc or GST)
VH: QIQLVQSGPELKKPGETVKISCKASGYTFTDYSMHWVKQAPGKGLKWMGWINTETGEPTYADDFKGRFAFSLETSASTAYLQINNLKNEDTATYFCARIPLYYYGSRYWYFDVWGAGTTVTVSS
VL: DIQMTQSPASLSVSVGETVTITCRASENIYRNLAWYQQKQGKSPQLLVYAATNLADGVPSRFSGSGSGTQYSLKINSLQSEDFGSYYCQHFWGTPWTFGGGTKLEIKR
notes: made by papain digestion of antibody A; also called Fab fragment of antibody A
Consider B1, for which, in assay [10], binding was characterised by a dissociation constant (Kd) of 40.4 nM. Also, the Kd in assay [11] amounted to 45.1 nM. In [12], this molecule registered a koff of 0.042 s⁻¹ and a kon of 931000 M⁻¹ s⁻¹. Moreover, in [13], the koff came to 0.0373 s⁻¹ and the kon came to 921000 M⁻¹ s⁻¹. Besides, in [8], the IC50 came out at 438 nM and the “fold activity against KYL peptide” value is at least 10 fold.

What is called IC50 is the concentration that inhibits the measured activity by half. Low values mean greater potency, high ones weaker potency. Usually Kd stands for the constant that tells how readily two partners part at equilibrium. A high value points to a looser complex. In general, koff refers to the rate constant with which the complex falls apart. Lower therefore signals slow dissociation. In general, kon refers to a measure of how fast the partners come together. A high value points to fast association.

For the origin of these results see US20190077860A1 (EISAI R AND D MANAGEMENT, published 2019).
